Assay results published in IntAct's records for PubMed 22705208.

B1: Fibroblast growth factor 12 (Homo sapiens), P61328-2 (parent)
chain: MESKEPQLKGIVTRLFSQQGYFLQMHPDGTIDGTKDENSDYTLFNLIPVGLRVVAIQGVKASLYVAMNGEGYLYSSDVFTPECKFKESVFENYYVIYSSTLYRQQESGRAWFLGLNKEGQIMKGNRVKKTKPSSHFVPKPIEVCMYREPSLHEIGEKQGRSRKSSGTPTMNGGKVVNQDST

Variants of: B1
Conditions: with scn5a_human SCN5A

Row | Variant | effect of a mutation on the interaction
1 | K9E | disrupting interaction strength

Variants of: B1
Conditions: with scn5a_human SCN5A
Remark: another data set of the same source

Row | Variant | effect of a mutation on the interaction
2 | K9E | decreasing interaction strength
